From patent US20100022453A1 come the findings set out here.

For assay [1], the target named is mouse NgR1, endogenous in acute hippocampal slices (mouse) (UniProt Q99PI8). Description: cell-based or functional assay.
The target in assay [2] is rat NgR1 (Nogo-66 receptor), full-length, expressed on cells (rat) (UniProt Q99M75). Description: cell-based or functional assay.
Sequence of rat NgR1 (Nogo-66 receptor), full-length, expressed on cells (rat) (Q99M75 27-447 limits assumed): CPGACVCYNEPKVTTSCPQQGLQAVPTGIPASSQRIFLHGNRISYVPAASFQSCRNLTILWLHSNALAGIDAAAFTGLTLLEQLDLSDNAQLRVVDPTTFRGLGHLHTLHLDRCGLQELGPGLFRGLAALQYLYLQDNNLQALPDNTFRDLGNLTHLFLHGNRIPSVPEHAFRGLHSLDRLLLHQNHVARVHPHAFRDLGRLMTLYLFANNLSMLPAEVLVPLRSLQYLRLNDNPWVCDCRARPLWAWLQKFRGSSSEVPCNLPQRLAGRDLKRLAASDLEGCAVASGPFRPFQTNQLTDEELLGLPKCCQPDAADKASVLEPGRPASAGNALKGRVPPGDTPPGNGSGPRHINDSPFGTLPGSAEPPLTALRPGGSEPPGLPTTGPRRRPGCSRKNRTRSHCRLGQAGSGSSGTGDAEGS

Sequence of mouse NgR1, endogenous in acute hippocampal slices (mouse) (Q99PI8 27-447): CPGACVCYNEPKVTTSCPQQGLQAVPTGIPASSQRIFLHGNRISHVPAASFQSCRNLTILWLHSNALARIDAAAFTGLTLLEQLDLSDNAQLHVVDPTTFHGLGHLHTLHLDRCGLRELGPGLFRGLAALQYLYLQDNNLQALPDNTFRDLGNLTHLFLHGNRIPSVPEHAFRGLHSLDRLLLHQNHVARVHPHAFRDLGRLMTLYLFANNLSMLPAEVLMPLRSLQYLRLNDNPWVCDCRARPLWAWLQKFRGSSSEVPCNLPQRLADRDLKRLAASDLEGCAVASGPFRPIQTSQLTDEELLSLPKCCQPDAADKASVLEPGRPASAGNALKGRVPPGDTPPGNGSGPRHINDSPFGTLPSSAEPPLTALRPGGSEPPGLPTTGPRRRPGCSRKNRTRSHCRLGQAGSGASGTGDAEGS

For FGF2 (Peprotech), unlabeled (ligand), in assay [1], the HFS-induced LTP at Schaffer collateral-CA1 synapses, mean fEPSP % of baseline, NgR1 null slices with FGF2 (10 µg/ml) (% of baseline) worked out at 165 and the HFS-induced LTP at Schaffer collateral-CA1 synapses, mean fEPSP % of baseline, wild-type slices with FGF2 (10 µg/ml) (% of baseline) was 139. Moreover, in assay [2], the percentage of cells with processes longer than two cell bodies in diameter, PC12^NgR1 line NgR1-1, 25 ng/ml FGF2 was determined as 5.6%; the percentage of cells with processes longer than two cell bodies in diameter, PC12^NgR1 line NgR1-2, 25 ng/ml FGF2 was determined as 7.2%; the percentage of cells with processes longer than two cell bodies in diameter, control PC12 cells (very low endogenous NgR1), 25 ng/ml FGF2 is 19.8%.
